Drawing on the supplement of paper PMC12042874, this text covers amyloid nucleation score for 141 substances.

This data set in a line: amyloid nucleation score (Sup35N fusion, yeast selection) (log enrichment); library NNK1; higher = more nucleation; inactive = no reads after selection. Put shortly: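 The nucleation score equals the log enrichment of output over input reads from DiMSum, centred on the mode score of non-aggregating sequences. It was computed only for sequences with 100 or more input reads. The reads came from Illumina sequencing of plasmid inserts from psi-negative yeast expressing Sup35N fused to peptides of 20 random codons, induced with 100 μM copper sulfate for 24 hours and grown 7 days at 30°C without adenine and uracil.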

± gives the uncertainty stated by the source.

For the substance LRTKSLWSF, the amyloid nucleation score is -0.515 ± 0.59. Consider RGPLVFYLFTFWLCDRGNVL, for which the amyloid nucleation score stood at 0.046 ± 0.58. The substance LMNVVLISHKSFVYSR came in with an amyloid nucleation score of -1.16 ± 2.7.

Turning to LQLIGYRDNWSGVMFYLERG, the amyloid nucleation score came to 0.838 ± 0.55. As to MDKEESRCVELSLMSVSVMG, the amyloid nucleation score was determined as 1.35 ± 0.79. In the case of YDAIYV, the amyloid nucleation score came out at 0.368 ± 0.63.

NMFNDVGDWTFNKGSFTGTV yielded an amyloid nucleation score of -0.482 ± 0.41. On to QSVKTQGVVCAVSIYFGGCS, for which the amyloid nucleation score came to 2.39 ± 0.23. For the substance TFISSMPNQMIFPKGGSRGC, the amyloid nucleation score result was “inactive”. For the substance SRGTGRARDAAA, the amyloid nucleation score is -0.488 ± 1.1. Substance FVYLVHLLMNGRVIKLFRDM registered an amyloid nucleation score of -0.372 ± 0.27.

Turning to IFWTFRGITMPSC, the amyloid nucleation score came out at 0.702 ± 0.55.

Regarding GRREMEGTHIKKICRGGRTR, the amyloid nucleation score is 1.53 ± 0.73. Regarding TSDRVVPFGSISWKGCSRVR, the amyloid nucleation score was -0.981 ± 0.85. For the substance FWDVTPWCHSRDCAVLFSRA, the amyloid nucleation score was -1.37 ± 2.7. For DKSNRTCNWQFNNICCL, the amyloid nucleation score was found to be 8.386 ± 0.049. CRGNLIL: the amyloid nucleation score was -0.578 ± 0.29. NCWQLYLKHSVPRRIQRGYA showed an amyloid nucleation score of -0.577 ± 0.48. The substance WSGFQCSQDEWNLSMTIVRA registered an amyloid nucleation score of -0.097 ± 0.78.

In turn, THGPFRCLSNCDVFTPNPEE showed an amyloid nucleation score of 1.03 ± 0.62. The substance CSWFVYSNFFSHQMADMEWL gave an amyloid nucleation score of 0.183 ± 0.58. Substance YGSDGCKRRKGSTALAIVTY yielded an amyloid nucleation score of 0.423 ± 0.41. Substance QYPRFHVTGTGRLCGSRMSY yielded an amyloid nucleation score of -0.382 ± 0.4. Take RDTVTSNSSVT: the amyloid nucleation score was 4.36 ± 0.095. With WMFIFRLTSTLYYHCC the entry was “inactive”; with FVTMAVWGLYTCFKVHKGIV, -0.4 ± 0.78; with LMPARLNYERTALSMPKWSE, -0.38 ± 0.63. The value for ANLVWDYFQVSTSPMCPLVQ was -2.07 ± 2.4; that for LLRMIKICYDLRSNLDSWRS was -0.529 ± 1.7. As for IQSIIW, the amyloid nucleation score is -0.418 ± 0.5.

As for AFLQLDS, the amyloid nucleation score worked out at 0.665 ± 0.36. The substance LMGECGLSFLTPY gave an amyloid nucleation score of 0.275 ± 0.84. The substance FYEASDRGERLEQKLKLTVL registered an amyloid nucleation score of 1.51 ± 0.49. Take KFVYSVGMTLSSGSFSVEIF: the amyloid nucleation score amounted to 5.02 ± 0.053. Substance SRTFVGGLGLVYEIFIVMAV gave an amyloid nucleation score of -0.301 ± 0.59. In the case of SSKVERG, the amyloid nucleation score was -0.139 ± 1.3. With KNMAYHDSLDSVYPAVG the figure was 0.32 ± 0.57; with ISGNRSKVWNDGWIRPRYLC, 0.679 ± 0.84. For the substance ALIFLGYMLRRRYWIYRLLS, the amyloid nucleation score was determined as 0.07 ± 0.58. In turn, LWVFGCCIVRMIR yielded an amyloid nucleation score of 0.047 ± 0.74.

AYGKRTNTRICDNKTLGVSS gave an amyloid nucleation score of -0.745 ± 2.4. For the substance QSAYRSR, the amyloid nucleation score result is “inactive”. The substance YSHFEQYMDNFNIMNYDYRD came in with an amyloid nucleation score of -0.879 ± 1.2. In the case of LSSIATRKHELLNFPV, the amyloid nucleation score was found to be 0.294 ± 0.63. In turn, LMYKICTLVRRLHLSRYKNM had an amyloid nucleation score of -1.27 ± 1.7. QYPLMK gave an amyloid nucleation score of 0.319 ± 0.32.

Substance INTKRVRSRHSTR registered an amyloid nucleation score of -0.502 ± 0.79. With LSWVQSLKACNI, the amyloid nucleation score was 1.45 ± 0.4.

MFSTLH had an amyloid nucleation score of 0.178 ± 0.36. For the substance LHYCTCSIRSIF, the amyloid nucleation score worked out at 0.325 ± 0.6.

As to WTAFGRFAVQTFFEKHM, the amyloid nucleation score is -0.275 ± 0.24. Regarding RREVRCSQR, the amyloid nucleation score was -0.559 ± 0.61. With RWRLFLRAMSLYDDVSHASA the figure was 0.287 ± 0.23; with GNWTGGYCVCGRQSSLIVVE, -0.016 ± 1.7; with FFICKFL, -0.427 ± 1.9. The substance VPFSGSDNGGTYDCLDWNEG returned an amyloid nucleation score of -0.299 ± 0.63. With CLSSSH, the amyloid nucleation score was -0.322 ± 0.38. In turn, WGIPMVGSRGPMCTKVGFRK displayed an amyloid nucleation score of 0.141 ± 0.35.

In turn, VRLKVKCIMIH gave an amyloid nucleation score of 0.962 ± 0.72. As to NYILFWRTSSNFECPYP, the amyloid nucleation score came out at 0.181 ± 0.24. Substance SERTMMSDKLSKRSLPCSLR gave an amyloid nucleation score of -0.717 ± 0.63.

LFDVYN returned an amyloid nucleation score of -0.549 ± 0.49.

Consider FLENSTTSYNCYFNARWKCS, for which the amyloid nucleation score was 0.389 ± 0.35.

PTIKRGTVGFNWVGRACSGK displayed an amyloid nucleation score of -0.529 ± 0.57. Substance LIQRLVFEYMFPVIGVPISW registered an amyloid nucleation score of -0.208 ± 0.65.

YRVVACMGCALRLVWLARYR had an amyloid nucleation score of -0.31 ± 0.3.

YFIPEFSTCVMWRSNNTGKY showed an amyloid nucleation score of -0.211 ± 1.2. With TYPMATIIVALG the figure was -0.681 ± 0.38; with NTCLH, 1.63 ± 0.43; with PILCGTSLSQINDYYGV, -0.369 ± 0.56.

In the case of KSGLRTLFSGVGHCWDALVY, the amyloid nucleation score turned out to be 0.198 ± 0.45.

CGSRVDGSCTAGTSIWVVDV displayed an amyloid nucleation score of 0.528 ± 0.66.

The substance IVGSLYLELYSRR came in with an amyloid nucleation score of 1.57 ± 0.18. For the substance ISRPSSSGRLHVVMTSSNAR, the amyloid nucleation score amounted to 0.421 ± 0.39. GGSFYKAILFNRKCVYVGSR displayed an amyloid nucleation score of 0.942 ± 0.51. GGKRVGNIVVRRAQIIIGRR returned an amyloid nucleation score of 1.07 ± 0.7. Consider SGWCGSTFSCERNPTVYSSC, for which the amyloid nucleation score was 1.96 ± 0.26.

Take GENPGQDYASGFLNVFKNYL: the amyloid nucleation score turned out to be 1.01 ± 0.54.

As to SDQSPFLIGVPWFVIYNRGG, the amyloid nucleation score is 1.69 ± 0.11. PPVHSDFKWAFVWVQLVWRG yielded an amyloid nucleation score of -0.016 ± 0.53. In the case of LFWSET, the amyloid nucleation score is -0.526 ± 0.81. For the substance RNIVRFCNRSFRILLRGSAT, the amyloid nucleation score entry was “inactive”. For the substance EGMNLV, the amyloid nucleation score came to 0.196 ± 0.63.

ECMGGVAIARNFATI had an amyloid nucleation score of -1.11 ± 2.7.

LATFVWPGHGRV gave an amyloid nucleation score of 1.65 ± 0.14. For SGRRTYMLRMLQWVGVIAYR, the amyloid nucleation score was -2.36 ± 2.4. For the substance HYRFCYCHSTKS, the amyloid nucleation score came out at 1.76 ± 0.42. The value for PLVNVYSSAYYSRHLKGLCV was -0.782 ± 0.69; that for ASMPAFAT was 0.413 ± 0.72. With CWMTGWTYPVY the figure was 3.85 ± 0.15; with ALYSQGSSTV, -1.15 ± 1.1; with GVAWMFLCYVLAA, 0.575 ± 0.27. As to FGSRQVYWSRRMIVQGQVMK, the amyloid nucleation score was -0.837 ± 0.71. GFGLVRIPIMFNEAPEVVSK: the amyloid nucleation score was -0.133 ± 0.46. In turn, HRGLSLLAGVSALVWKSQMT showed an amyloid nucleation score of -0.4 ± 1.1. In the case of DVVEYVIWSYTWMNLAHYCR, the amyloid nucleation score was 0.136 ± 0.24. Substance FGKLYF yielded an amyloid nucleation score of -0.52 ± 0.98. ARSCVLNLVPGFSPSFGT: the amyloid nucleation score is -0.426 ± 0.52. As to DRRMSTTVMGRFVWRDRYVG, the amyloid nucleation score came to 0.526 ± 0.65.

Turning to RLMSADFMQQEMMRGKVMAG, the amyloid nucleation score was -0.351 ± 0.41. The value for PYIVKVCGCDPLVHLFI was 0.608 ± 0.23.

As for DVLLCSIRTSSHDMIIMRKR, the amyloid nucleation score came out at 0.553 ± 0.65. The substance DALYLFWVMGRMVRDRV returned an amyloid nucleation score of 0 ± 0.63. For AKGCNMWI, the amyloid nucleation score came out at 2.3 ± 0.32.

WRVSVKVVSAELEGMRNFAV registered an amyloid nucleation score of 0.259 ± 0.49. Regarding CCERGWS, the amyloid nucleation score was found to be 0.156 ± 0.72. For NYFTVCLKGVRSDPPSVAKG, the amyloid nucleation score is -0.596 ± 0.4.

The substance LTVMMLGFGHVQCMS yielded an amyloid nucleation score of -0.003 ± 0.26. With AQFFVLSSLW, the amyloid nucleation score was -0.085 ± 0.93. FFVGEDRACSRYSLTTTITG: the amyloid nucleation score is 0.554 ± 0.64. The value for WVGFGDVKSVTVMLYAPAWT was 5.04 ± 0.094; that for NGYQCYGILCAFVTWTVYFW was 1.26 ± 0.79; that for VCRPYVRLSPGGM was -1.27 ± 2.7. In turn, CWCQAPVC had an amyloid nucleation score of 0.124 ± 0.31.

The substance HWCLMGLCKLFSSARPPLKK returned an amyloid nucleation score of 0.085 ± 0.8. In turn, RAFAFTW gave an amyloid nucleation score of 2.38 ± 0.14. In turn, VLGSVIGFLWNP gave an amyloid nucleation score of 2.23 ± 0.088. With VVRFCYTEEVRVFNQASLRE the figure was 0.134 ± 0.5. As for KVGHANVADFPIWRRNLFG, the amyloid nucleation score was -0.544 ± 0.84. For TNFRRSCYVDGVC, the amyloid nucleation score entry was “inactive”. The value for LTNATFQLWLLCCDGPLRDM was 5.87 ± 0.062; that for PMFWRYILFSANNEPQFIRQ was 0.073 ± 0.24. On to SWIEKDHFQVGARYRMSS, for which the amyloid nucleation score was -0.376 ± 0.6. IILWAWCKTGGDGIPSGVVL came in with an amyloid nucleation score of 0.342 ± 0.23. Substance NILDMCLKRYIFMLE showed an amyloid nucleation score of 1.44 ± 0.37. Substance SFTNDSSRSWRHTRLGSCCE showed an amyloid nucleation score of 1.48 ± 0.63.

For LSFAKGSVFITGDCISGTVD, the amyloid nucleation score is -1.49 ± 1.7. The value for PQALGSTHLQTRRDQHVIF was -0.046 ± 0.53; that for SRCCGPCYTAV was -0.115 ± 0.3; that for HMITSLRWSSLRSWTQVWLR was “inactive”.

As to QFVSLKFRVGLATS, the amyloid nucleation score worked out at 0.045 ± 0.95. As to TWAHMQYDVWPDPTAEKDQV, the amyloid nucleation score worked out at 0.158 ± 0.34. Substance ERITIFVSVRTGKLRYLWPT returned an amyloid nucleation score of -0.837 ± 2.4.

Take GMWCLFRKCSVA: the amyloid nucleation score entry was “inactive”. SAVWEVVEGDVLMWSYMKSP had an amyloid nucleation score of 0.019 ± 0.33. PIIILFL yielded an amyloid nucleation score of 1.15 ± 0.54. With WCMATCLIMVCANYVICLVG the figure was 0.927 ± 0.55; with SVWGIILYYWKY, 0.388 ± 0.43. The value for TIMFLVITIPRFHNDLMVLS was -0.79 ± 0.37; that for QSADLMNSMTLICGWSVQIA was 4.43 ± 0.12.

As to SFGANYTLILTVIIQRLADQ, the amyloid nucleation score was 6.31 ± 0.083.
